# T1: GlnR (Paenibacillus polymyxa WLY78, UniProt A0A074LG55 1-137)
# T1 sequence: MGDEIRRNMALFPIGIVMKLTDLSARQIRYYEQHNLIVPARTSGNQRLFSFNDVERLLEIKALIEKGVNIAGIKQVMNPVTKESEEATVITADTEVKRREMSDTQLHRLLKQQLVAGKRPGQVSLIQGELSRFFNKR
# B1: SPR oligo site I (BS1F/BS1R on capture linker) (dsDNA)
# DNA 1: GTAAAGTGTACGATATATTACTTGACGTAAAATTTGACA
# DNA 2: TGTCAAATTTTACGTCAAGTAATATATCGTACACTTTACCCTACCCTACGTCCTCCTGC
# DNA 3: GCAGGAGGACGTAGGGTAGG
# B2: SPR oligo site II (BS2F/BS2R on capture linker) (dsDNA)
# DNA 1: AACAGAGATTTATGTAAGGGAATATAACGTAGAGAGGAG
# DNA 2: CTCCTCTCTACGTTATATTCCCTTACATAAATCTCTGTTCCTACCCTACGTCCTCCTGC
# DNA 3: GCAGGAGGACGTAGGGTAGG
# B3: EMSA probe mutated site II (ATAACG to ATCGAT) (dsDNA)
# DNA 1: AGACAAAAACAGAGATTTATGTAAGGGAATAATCGATAGAGAGGAGGGAATGA
# DNA 2: TCATTCCCTCCTCTCTATCGATTATTCCCTTACATAAATCTCTGTTTTTGTCT
# B4: EMSA probe mutated site I (TGACGT to GGTACC) (dsDNA)
# DNA 1: ACCGCGCACATGTAAAGTGTACGATATATTACTGGTACCAAAATTTGACACATATGTGA
# DNA 2: TCACATATGTGTCAAATTTTGGTACCAGTAATATATCGTACACTTTACATGTGCGCGGT
# Columns and labels:
# [1] = biological target: His6-tagged GlnR of Paenibacillus polymyxa WLY78 (Paenibacillus polymyxa WLY78); assay: SEC; Superdex 200 10/300, 50 mM Tris-HCl pH 7.4, 300 mM NaCl; His6-GlnR at 2 mg/ml; dimer to monomers, broad peak with two maxima
# GlnR [2] = biological target: T1, GlnR; assay: SPR; GlnR alone; fast dissociation; EMSA: 20 mM HEPES pH 7.6, 1 mM EDTA, 10 mM (NH4)2SO4, 1 mM DTT, 0.2% Tween 20, 30 mM KCl, 1 ug poly[d(A-T)], 0.3 nM probe, 25 C; SPR: 10 mM HEPES pH 7.4, 300 mM NaCl, 3 mM MgCl2, 0.2 mM EDTA, 0.005% Tween-20, 25 C; settings: protein: recombinant; tags: N-terminal His6 (pET-28b); chain copies: 2; label: 5' biotin on capture linker S7; 39 bp duplex; 3' overhang 20 nt of BS1R paired to the capture linker
# GlnR [3] = biological target: T1, GlnR; assay: SPR; GlnR alone; EMSA: 20 mM HEPES pH 7.6, 1 mM EDTA, 10 mM (NH4)2SO4, 1 mM DTT, 0.2% Tween 20, 30 mM KCl, 1 ug poly[d(A-T)], 0.3 nM probe, 25 C; SPR: 10 mM HEPES pH 7.4, 300 mM NaCl, 3 mM MgCl2, 0.2 mM EDTA, 0.005% Tween-20, 25 C; settings: protein: recombinant, tags: N-terminal His6 (pET-28b), chain copies: 2, label: 5' biotin on capture linker S7, 39 bp duplex
# GlnR [4] = biological target: T1, GlnR; assay: SPR; GlnR alone; slow dissociation; EMSA: 20 mM HEPES pH 7.6, 1 mM EDTA, 10 mM (NH4)2SO4, 1 mM DTT, 0.2% Tween 20, 30 mM KCl, 1 ug poly[d(A-T)], 0.3 nM probe, 25 C; SPR: 10 mM HEPES pH 7.4, 300 mM NaCl, 3 mM MgCl2, 0.2 mM EDTA, 0.005% Tween-20, 25 C; settings: protein: recombinant; tags: N-terminal His6 (pET-28b); chain copies: 2; label: 5' biotin on capture linker S7; 39 bp duplex; 3' overhang 20 nt of BS2R paired to the capture linker
# GlnR [5] = biological target: T1, GlnR; assay: EMSA; GlnR alone; EMSA: 20 mM HEPES pH 7.6, 1 mM EDTA, 10 mM (NH4)2SO4, 1 mM DTT, 0.2% Tween 20, 30 mM KCl, 1 ug poly[d(A-T)], 0.3 nM probe, 25 C; SPR: 10 mM HEPES pH 7.4, 300 mM NaCl, 3 mM MgCl2, 0.2 mM EDTA, 0.005% Tween-20, 25 C; settings: protein: recombinant; tags: N-terminal His6 (pET-28b); chain copies: 2; label: DIG 3' end; blunt
molecule,measurement,setting,value
His6-tagged GlnR of Paenibacillus polymyxa WLY78 (natural protein),stoichiometry N,[1],2
B1,Kd,GlnR [2],9.16e-07 M (unit not printed in text)
same,Ka,GlnR [3]; 3' overhang 20 nt of BS1R paired to the capture linker,1.09e+06 M-1 (unit not printed in text)
B2,Kd,GlnR [4],5.37e-08 M (unit not printed in text)
same,Ka,GlnR [3]; 3' overhang 20 nt of BS2R paired to the capture linker,1.86e+07 M-1 (unit not printed in text)
B3,binding result,GlnR [5],no binding
B4,binding result,GlnR [5],no binding

# From PMC6191146, “Positive and negative regulation of transferred nif genes mediated by indigenous GlnR in Gram-positive Paenibacillus polymyxa”
